Laboratory results published in publication PMC10366546.
Where “and” joins values, the source holds several entries; their conditions need not be identical. Identical values can stand only once.

Biological target: Ostreolysin A6 (Pleurotus ostreatus)
Experiment: high-speed atomic force microscopy; OlyA6 added (final around 0.35 uM, 5.8 ug/ml) to a d17:1/12:0-CPE/Chol (1:1) supported lipid bilayer on mica, PBS 10 mM pH 7.5, room temperature; self-assembly on the membrane

stoichiometry N: 6 and 2
Substance: Ostreolysin A6 (natural protein)
